The source of these data is paper PMC3996484, “Apoptosis Therapy in Cancer: The First Single-molecule Co-activating p53 and the Translocator Protein in Glioblastoma” (Scientific Reports, 2014).

In the experiment the target is T1, recombinant human His-tagged p53 protein (residues 1-312) (human, UniProt P04637 1-312).
T1 construct: p53 tumor suppressor, human, residues 1-312; source: final buffer with 0.2 mM ZnCl2
As to the kind of experiment: NMR titration; AIDA, 1D proton NMR of tryptophan side chain NH-epsilon signals of p53 alone and of the MDM2/p53 complex; 0.1 mM proteins, 20 mM TrisHCl, 150 mM KCl, pH 7.4, 5 mM beta-mercaptoethanol, 0.02% NaN3, 25°C, 700 MHz. The following applies: both partners purified.

T1 sequence (P04637 1-312): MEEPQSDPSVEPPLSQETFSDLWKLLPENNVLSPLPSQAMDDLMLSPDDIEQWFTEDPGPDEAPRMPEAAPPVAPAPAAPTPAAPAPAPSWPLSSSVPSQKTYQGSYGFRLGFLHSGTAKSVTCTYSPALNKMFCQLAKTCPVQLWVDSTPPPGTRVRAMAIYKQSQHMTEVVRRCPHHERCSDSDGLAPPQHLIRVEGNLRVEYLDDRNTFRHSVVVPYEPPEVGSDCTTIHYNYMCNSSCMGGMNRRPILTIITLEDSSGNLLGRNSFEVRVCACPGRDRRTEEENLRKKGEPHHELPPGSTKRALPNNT

B1: recombinant human His-tagged N-terminal region of MDM2 (residues 1-118) (domain or fragment, UniProt Q00987 1-118, looked up)
chain: MCNTNMSVPTDGAVTTSQIPASEQETLVRPKPLLLKLLKSVGAQKDTYTMKEVLFYLGQYIMTKRLYDEKQQHIVYCSNDLLGDLFGVPSFSVKEHRKIYTMIYRNLVVVNQQESSDS
notes: MDM2 (murine double minute 2), human, N-terminal region, residues 1-118; Cloned in a derivative of the vector pET-46Ek/LIC (Novagen); also called murine double minute 2
For the molecule B1, the binding result is “binds”.
